The source of these data is article PMC5947699, “Cloning, purification and structure determination of the HIV integrase-binding domain of lens epithelium-derived growth factor” (Acta Crystallographica. Section F, Structural Biology …, 2018).

This data set deals with the molecule itself. The experiment in a line: AUC; sedimentation velocity, twofold dilution series starting from 6.5 mg/ml, 50 000 rev/min, 20°C, absorbance (280 nm) and interference optics, c(s) model in SEDFIT; buffer similar to that used for crystallization; monomer to dimer; self-association not saturated.

B1: HIV integrase-binding domain (IBD) of lens epithelium-derived growth factor (LEDGF)/p75, His tag cleaved (domain or fragment, human)
chain: GGSMGSGGGGSGGGGSGGGGAAAMETSMDSRLQRIHAEIKNSLKIDNLDVNRCIEALDELASLQVTMQQAQKHTEMITTLKKIRRFKVSQVIMEKSTMLYNKFKNMFLVGE
notes: 24-amino-acid linker ending with methionine that precedes Glu345 of the IBD; left on the protein after TEV cleavage (ENLYFQ/G); Intact mass 11 882 Da measured against 11 881.66 Da calculated; The linker was not visible in the electron density; also called IBD protein; free IBD; source: E. coli B834 (DE3), purified (IMAC, SEC, TEV cleavage, reverse IMAC) for crystallization; E. coli C41 (DE3), …
Turning to B1, the Kd is about 2000 µM and the “stoichiometry N” value stood at 2.

For orientation: Kd means the constant that tells how readily two partners part at equilibrium. A high value points to lower affinity. The term stoichiometry N denotes a count of units in the complex or per binding partner.
